From patent US20260055143A1 (published 2026)
Read-outs that look alike come from different tables or passages of the source. Where no end group is shown, it is not given here. [ ]: non-standard residue; d: D form. The star is where a group is joined. Biotin = O=C1N[C@H]2[C@H](CS[C@H]2CCCCC(=O)*)N1; pY = N[C@@H](Cc1ccc(OP(=O)(O)O)cc1)C(=O)O; Ahx = NCCCCCC(=O)O

T1: pTyr-containing peptide (pEZ) derived from Ezrin, PPV{pTyr}EPVS (also: N-terminal fluorescein (FP) or biotin via two aminocaproic acids (ELISA))
T1 peptide: PPV[pY]EPVS

T2: pMT peptide EEPQ{pTyr}EEIPIY
T2 peptide: {Biotin-Ahx-Ahx}-EEPQ[pY]EEIPIY

T3: Phosphopeptide QGVI{pTyr}SDLNLP
T3 peptide: {Biotin-Ahx-Ahx}-QGVI[pY]SDLNLP

T4: Phosphopeptide KQVE{pTyr}LDLDLD
T4 peptide: {Biotin-Ahx-Ahx}-KQVE[pY]LDLDLD

T5: Phosphopeptide PPPT{pTyr}TEVDP
T5 peptide: {Biotin-Ahx-Ahx}-PPPT[pY]TEVDP

B1: Fes^sSrc, Fes SH2 domain with the sSrc superbinder motif grafted (designed binder)
chain: MKIEEHHHHHHSSGKLGLNDIFEAQKIEWHESSGEDLYFQSGTTMDDYKDDDDKGGSEVQKPLHEQLWYHGAIPRAEVAELLVHSGDFLVRESETVKGAYALSVLWDGLPRHFLIQSLDNLYRLEGEGFPSIPLLIDHLLSTQQPLTKKSGVVLHRAVPSR
B2: Src^sFes, Src SH2 domain with the sFes superbinder motif grafted (designed binder)
chain: MKIEEHHHHHHSSGKLGLNDIFEAQKIEWHESSGEDLYFQSGTTMDDYKDDDDKGGSDGIQAEEWYFGKITRRESERLLLNAENPRGTFLVREGQSQPDYVLSVSDFDNAKGLNVKHYIIRKLDSGGFYITSRTQFNSLQQLVAYYSKHADGLCHRLTTVCPSR
B3: Ptn6_C^G-αA2-R sFes (protein)
chain: MKIEEHHHHHHSSGKLGLNDIFEAQKIEWHESSGEDLYFQSGTTMDDYKDDDDKGSLNCSDPTSERWYHGHMSRGQAETLLQAKGEPWTFLVREGQSQPDFVLSVLSDQPKAGPGSPLRVTHIIVMCEGGRYTVGGLETFDSLTDLVEHFKKTGIEEASGAFVYLRQPYYATRVNAADSR
B4: Ptn11_N^G-αA2-R sFes (protein)
chain: MKIEEHHHHHHSSGKLGLNDIFEAQKIEWHESSGEDLYFQSGTTMDDYKDDDDKGGSGSMTSRRWFHPNITRVEAENLLLTRGVDGSFLARPGQSQPDFVLSVRRNGAVTHIIIQNTGDYYDLYGGEKFATLAELVQYYMEHHGQLKEKNGDVIELKYPLNCADSR
B5: Ptn11_N^G-αA2-R sSrc (protein)
chain: MKIEEHHHHHHSSGKLGLNDIFEAQKIEWHESSGEDLYFQSGTTMDDYKDDDDKGGSGSMTSRRWFHPNITRVEAENLLLTRGVDGSFLARPSETVKGAFALSVRRNGAVTHILIQNTGDYYDLYGGEKFATLAELVQYYMEHHGQLKEKNGDVIELKYPLNCADSR
B6: Fes SH2 domain, wild type (Fes^wt) (other)
chain: WYHGAIPRAEVAELLVHSGDFLVRESQGKQEYVLSVLWDGLPRHFIIQSLDNLYRLEGEGFPSIPLLIDHLLSTQQPLTKKSGVVLHRAV
B7: sFes^1 (SuperFes), superbinder Fes SH2 domain variant (designed binder)
chain: MKIEEHHHHHHSSGKLGLNDIFEAQKIEWHESSGEDLYFQSGTTMDDYKDDDDKGGSEVQKPLHEQLWYHGAIPRAEVAELLVHSGDFLVREGQSQPDYVLSVLWDGLPRHFIIQSLDNLYRLEGEGFPSIPLLIDHLLSTQQPLTKKSGVVLHRAVPSR
B8: Ptn11_C^G-αA2-R sSrc (protein)
chain: MKIEEHHHHHHSSGKLGLNDIFEAQKIEWHESSGEDLYFQSGTTMDDYKDDDDKGSLNCADPTSERWFHGHLSRKEAEKLLTEKGKHGSFLVRESETVKGAFALSVRTGDDKGESNDGKSKVTHVLIRCQELKYDVGGGERFDSLTDLVEHYKKNPMVETLGTVLQLKQPLNTTRINAADSR

Experiments:
[1] = target: T1, pTyr-containing peptide (pEZ) derived …; experiment: competition binding
[2] = target: T1, pTyr-containing peptide (pEZ) derived …; experiment: competition binding
[3] = target: T2, pMT peptide EEPQ{pTyr}EEIPIY; experiment: competition binding
[4] = target: T2, pMT peptide EEPQ{pTyr}EEIPIY; experiment: competition binding
[5] = target: T3, Phosphopeptide QGVI{pTyr}SDLNLP; experiment: competition binding
[6] = target: T4, Phosphopeptide KQVE{pTyr}LDLDLD; experiment: competition binding
[7] = target: T5, Phosphopeptide PPPT{pTyr}TEVDP; experiment: competition

| Binder | IC50 [1] [nM] | IC50 [2] [nM] | further results |
| --- | --- | --- | --- |
| B1 | 42 | 70 | – |
| B2 | – | – | IC50 [3]: 4.3 nM; IC50 [4]: 21 nM |
| B3 | – | – | IC50 [5]: 900 nM |
| B4 | – | – | IC50 [6]: 74 nM |
| B5 | – | – | IC50 [6]: 17 nM |
| B6 | 4600 | 6000 | – |
| B7 | 1.6 | 4 | – |
| B8 | – | – | IC50 [7]: 1900 nM |
